Substitutions are numbered along the chain they refer to. Names may count otherwise.
Key:
293T cells [1] = test: Hexose uptake assay: 2-deoxyglucose; assay type: cell-based, human; details: for glucose uptake in presence of glucose transporter inhibitors: control 293T cells, 20 μM cytochalasin B, 300 μM phloretin
Description: (§1) Assay of hexose uptake. 2-deoxy-D[1-^3H]glucose, D[U-^14C]fructose and 3-O-[^14C]methyl-D-glucose were obtained from Amersham. Hexose uptake assay were adapted from Harrison et al. 1991). After transfection, approximately 250,000 were seeded/well in 24-well plates. […] Uptake was initiated by adding labeled hexoses to a final concentration of 0.1 mM (2 μCi/ml for 2-2-deoxy-D[1-^3H]glucose and 0.2 μCi/ml for D[U-^14C]fructose and 3-O-[^14C]methyl-D-glucose) and cells were incubated for 5′ additional minutes. Cells were then resuspended in 500 μl cold serum-free glucose-free DMEM, wash one time in serum-free glucose-free DMEM, and solubilized in 400 μl of 0.1% SDS. 3 μl was used for Bradford normalization, while the rest was used for detection of either ^3H or ^14C by liquid scintillation in a Beckman counter.

GLUT-1 [2] = molecular target: T1, GLUT-1 (Homo sapiens, UniProt P11166); test: Colocalization with GLUT-1 by fluorescence microscopy; assay type: cell-based
T1 construct: factor Xa cleavage site (C); His (C); expressed in transfected cells
T1 sequence (P11166 1-492): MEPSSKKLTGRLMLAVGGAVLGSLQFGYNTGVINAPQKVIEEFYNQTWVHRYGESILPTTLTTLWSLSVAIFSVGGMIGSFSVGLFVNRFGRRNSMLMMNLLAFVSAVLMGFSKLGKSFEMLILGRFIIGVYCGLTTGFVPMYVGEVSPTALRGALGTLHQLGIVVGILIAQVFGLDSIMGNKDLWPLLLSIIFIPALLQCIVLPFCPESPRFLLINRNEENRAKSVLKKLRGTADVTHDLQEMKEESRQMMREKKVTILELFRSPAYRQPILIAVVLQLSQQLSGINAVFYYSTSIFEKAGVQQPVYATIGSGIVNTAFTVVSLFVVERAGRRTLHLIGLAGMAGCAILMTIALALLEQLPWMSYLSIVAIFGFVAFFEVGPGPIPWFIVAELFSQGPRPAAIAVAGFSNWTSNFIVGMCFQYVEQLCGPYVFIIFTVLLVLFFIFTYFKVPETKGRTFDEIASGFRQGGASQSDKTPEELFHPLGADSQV
Text: (§2) In order to directly test the ability of HTLV envelopes to bind GLUT-1, we derived a tagged GLUT-1 expression vector and overexpressed this protein in HeLa cells. […] GLUT-3 is the closest isoform to GLUT-1, and transports glucose with kinetics similar to that of GLUT-1. Thus, we derived a tagged GLUT-3 expression vector. […] To determine if GLUT-1 transfected cells were directly responsible for the observed increased in H1RBD binding, we derived fluorescent tagged GLUT-1 and GLUT-3 to uniquevocally identity GLUT-overexpressing cells in the course of our FACS analysis. […] Consequently, we tested if HTLV glycoproteins directly interact with GLUT-1 proteins. To this end, we evaluated the ability of H1RBD to immunoprecipitate GLUT-1. […] Therefore, the GLUT-1 glucose transporter is an essential component of the HTLV envelope receptor.

PiT2 [3] = test: Colocalization with PiT2 by fluorescence microscopy; assay type: cell-based
293T cells [4] = test: Medium acidification after transfection of envelope expression vectors; assay type: cell-based, human; details: 293T cells transfected with envelope expression vector; phenol-red pH indicator
GLUT-1 [5] = molecular target: T1, GLUT-1; test: RBD binding to cells overexpressing GLUT-1; details: tagged GLUT-1 expression vector, HeLa cells / 293T cells (FIG. 4a legend)
Text: as §2
Expression vectors. Full length envelope expression vectors for HTLV-1 (pCEL/2[Denesvre, 1995]) and Friend ecotropic MLV (pCEL/F [Denesvre, 1995]), have been previously described. For the HTLV-2 envelope, a fragment from pHTE2 [Rosenberg, 1998] encompassing the tax, rex and env genes and the 3′ LTR was inserted in the pCSI [Battini, 1999] vector (pCSIX.H2). Full length envelope expression vectors for amphotropic MLV (pCSI.A), or devoid of its R peptide (pCSI.AΔR), and H183FEnv that contains the N-terminal 183 amino acids of the HTLV-1 receptor-binding domain in the F-MLV envelope background, as well as truncated envelope expression vectors, derived from pCSI and encoding either of the first 215 residues of HTLV-1 SU (H1RBD), the first 178 residues of HTLV2-SU (H2RBD) or the first 397 residues of the amphotropic murine leukemia virus (MLV) SU (Amp), fused to a C-terminal rabbit IgG Fc tag (rFc) or to EGFP (H2RBD-GFP). All point mutations introduced in HTLV-1 and -2 RBD constructs were generated using the quickchange site-directed mutagenesis method and mutations were verified by sequencing. Human Glut-1 and Glut-3 cDNA were amplified by PCR from the pLib HeLa cDNA library (Clontech), and inserted into pCHIX, a modified version of the pCSI vector that contains a cassette comprising a factor Xa cleavage site, two copies of the hemagglutinin (HA) tag, and a histidine tag. The resulting construct (pCHIX.hGLUT1) encodes a GLUT-1 protein with a HA-His tag at the C-terminal end. GLUT-1 and GLUT-3 were also inserted in a modified pCSI vector containing a DsRed2 C-terminal tag. Similarly, human CD147 was amplified from 293T total RNA by RT-PCR and inserted into the pCHIX backbone in frame with the HA-His tag (pCHIX.hCD147).
Binding assays. […] Binding was analyzed on a FACSCalibur (Becton Dickinson) and data analysis was performed using CellQuest (Becton Dickinson) and WinMDI (Scripps) softwares.

HTLV receptor = molecular target: T2, HTLV receptor (Homo sapiens, UniProt P11166); test: FACS binding assay of RBD and mutants on HeLa cells
T2 construct: endogenous in cells; host or cells: HeLa cells
T2 sequence (P11166 1-492): T1 sequence (P11166 1-492)
Description: Binding assays. Binding assays were carried out as previously described [Manel, 2003]. Briefly, 5×10^5 cells (293T, HeLa, Jurkat or freshly isolated human erythrocytes) were incubated with 500 μl of H1RBD, H2RBD or ARBD supernatants for 30 min at 37° C., washed with PBA (1% BSA, 0.1% sodium azide in PBS), and incubated with a sheep anti-rabbit IgG antibody conjugated to fluorescein isothiocyanate (Sigma). […] Binding was analyzed on a FACSCalibur (Becton Dickinson) and data analysis was performed using CellQuest (Becton Dickinson) and WinMDI (Scripps) softwares.

293T cells [6] = test: Extracellular lactate in culture medium of transfected cells; assay type: cell-based, human; details: medium of 293T cells one day post transfection
Description: Envelope expression and metabolic measurements. 293T cells were transfected with the various envelope expression vectors using a modified version of the calcium phosphate method. After an overnight transfection, cells were washed in phosphate-buffered saline (PBS) and fresh medium was added. Media were harvested at the indicated time points, filtered through a 0.45-μm pore-size filter, and lactate and glucose were measured with enzymatic diagnostic kits (Sigma). Values were normalized to cellular protein content using the Bradford assay (Sigma) after solubilization of cells in lysis buffer (50 mM Tris-HCl pH 8.0, 150 mM NaCl, 0.1% sodium dodecyl sulfate, 1.0% Nonidet P-40, 0.5% deoxycholate) and clarification by centrifugation.

GLUT-1 [7] = molecular target: T1, GLUT-1; test: Immunoprecipitation of GLUT-1-HA with anti-rabbit-Fc beads; assay type: binding; details: co-expression with GLUT-1 in 293T cells, probed with anti-HA antibody
Text: FIGS. 4a-4c GLUT-1 is a receptor for HTLV envelopes. FIG. 4a, Binding of H1RBD, H2RBD, H2RBD D102A mutant, and ARBD to control 293T cells or 293T cells overexpressing either GLUT-1 or PiT2. FIG. 4b, Binding of H2RBD-EGFP to cells overexpressing GLUT-1-HA or GLUT-3-HA, and corresponding immunoblots using an anti-HA antibody. FIG. 4c, Immunoprecipitation of GLUT-1-HA from 293T cells transfected with either an irrelevant construct, GLUT-1 alone, H1RBD alone, H1RBD Y114A alone, GLUT-1 with H1RBD or GLUT-1 with H1RBD Y114A expression vectors Immunoprecipitation was performed using anti-rabbit-Fc beads and probed with an anti-HA antibody. Total cell extracts were blotted using an anti-rabbit Fc or an anti-HA antibody.
In order to directly test the ability of HTLV envelopes to bind GLUT-1, we derived a tagged GLUT-1 expression vector and overexpressed this protein in HeLa cells. […] GLUT-3 is the closest isoform to GLUT-1, and transports glucose with kinetics similar to that of GLUT-1. Thus, we derived a tagged GLUT-3 expression vector. […] To determine if GLUT-1 transfected cells were directly responsible for the observed increased in H1RBD binding, we derived fluorescent tagged GLUT-1 and GLUT-3 to uniquevocally identity GLUT-overexpressing cells in the course of our FACS analysis. […] To this end, we evaluated the ability of H1RBD to immunoprecipitate GLUT-1. […]

[8] = system: MLV particles pseudotyped with HTLV-2 envelopes; test: Interference to infection by HTLV-2 envelope pseudotyped MLV particles; assay type: cell-based; details: 293T cells transfected with H2RBD expression vector
Text: (§3) Viral receptor permits entry and thus infection. No cellular system currently exists that lacks GLUT-1 expression. […] In this system, over-expression of HTLV-2 RBD interferes with infecting incoming HTLV particles and specifically decreases HTLV titers by at least 2 logs, while no effect is detected on control A-MLV titers. To determine if GLUT-1 is an entry receptor for HTLV, we overexpressed GLUT-1, GLUT-3 or Pit2 in addition to the interfering H2RBD. While Pit2 and GLUT-3 had no effect on HTLV titers, GLUT-1 completely alleviated the interference to infection induced by H2RBD (FIG. 5). […] Thus, GLUT-1 is an entry receptor for HTLV.
(§4) Infections. 293T cells were transfected in 6-wells plate, and one day after transfection, medium was replaced by high glucose DMEM supplemented with fructose (5 g/l) and non-essential amino acids. The next day, infection was initiated by adding supernatants containing MLV particles pseudotyped with either HTLV-2 or A-MLV envelopes. The following day, fresh medium was added, and 24 hours later cells were fixed and stained for alkaline phosphatase activity and dark focus of infection were counted. Viral particles were obtained by transfecting 293T cells with pLAPSN, pGagPol and either pCSIX.H2 or pCSI.A, and harvesting the 0.45 μm-filtered supernatants 24 hours later.

PiT2 [9] = test: RBD binding to cells overexpressing PiT2
293T cells [10] = test: Hexose uptake assay: fructose; assay type: cell-based, human; details: transfected 293T cells
Description: as §1

[11] = system: MLV particles pseudotyped with A-MLV envelopes; test: Interference to infection by A-MLV envelope pseudotyped MLV particles; assay type: cell-based; details: 293T cells transfected with H2RBD expression vector
Text: as §3, §4

Molecule: C=C1[C@@H](C)[C@H]2[C@H](Cc3ccccc3)NC(=O)[C@]23OC(=O)/C=C/[C@H](O)CCC[C@@H](C)C/C=C/[C@H]3[C@@H]1O [cytochalasin B, reference compound]
- glucose uptake in presence of glucose transporter inhibitors (293T cells [1]): inhibited glucose uptake

Molecule: O=C(CCc1ccc(O)cc1)c1c(O)cc(O)cc1O [phloterin, phloretin, reference compound]
- glucose uptake in presence of glucose transporter inhibitors (293T cells [1]): inhibited glucose uptake

Molecule: GFP-tagged HTLV-2 RBD
- colocalization with GLUT-1 (GLUT-1 [2]): colocalized with GLUT-1
- colocalization with PiT2 (PiT2 [3]): not with PiT2

Molecule: HTLV-2 Env: full length syncytial wild-type HTLV-2 envelope (pCSIX.H2) (MKWVTFISLLFLFSSAYS)
- medium acidification (293T cells [4]): did not readily acidify

B1: D106A (protein)
chain: DYSPSCCTLTIGVSSYHSKPCNPAQPVCSWTLDLLALSADQALQPPCPNLVSYSSYHATYSLYLFPHWIKKPNRNGGGYYSASYSAPCSLKCPYLGCQSWTCPYTGAVSSPYWKFQQDVNFTQEVSRLNINLHFSKCGFPFSLLVDAPGYDPIWFLNTEPSQLPPTAPPLLPHSNLDHILEPSIPWKSKLLTLVQ
- binding upon GLUT-1 overexpression (GLUT-1 [5]): did not bind GLUT-1
- binding to the HTLV receptor as detected by FACS analysis (HTLV receptor): significantly reduced
- lactate accumulation in cells expressing RBD mutant (293T cells [6]): minimally reduced

B2: Y114A (protein)
chain: B1 chain with A86D, Y94A
- detection of GLUT-1 upon immunoprecipitation with anti-rabbit-Fc-beads (GLUT-1 [7]): could not be detected
- binding to the HTLV receptor as detected by FACS analysis (HTLV receptor): non-detectable
- lactate accumulation in cells expressing RBD mutant (293T cells [6]): not reduced

B3: H2RBD: first 178 residues of HTLV2-SU fused to a C-terminal rabbit IgG Fc tag (rFc) (protein)
chain: VDVPRDCGCKPCICTVPEVSSVFIFPPKPKDVLTITLTPKVTCVVVDISKDDPEVQFSWFVDDVEVHTAQTQPREEQFNSTFRSVSELPIMHQDWLNGKEFKCRVNSAAFPAPIEKTISKTKGRPKAPQVYTIPPPKEQMAKDKVSLTCMITDFFPEDITVEWQWNGQPAENYKNTQPIMDTDGSYFVYSKLNVQKSNWEAGNTFTCSVLHEGLHNHHTEKSLSHSPGK
- decrease of HTLV titers by over-expression of interfering RBD [8]: at least 2 logs
- binding upon overexpression of PiT2 (PiT2 [9]): remained at background levels
- decrease in 2-deoxyglucose uptake (293T cells [1]; transfected 293T cells vs control cells): approximately 4 fold
- binding upon GLUT-1 overexpression (GLUT-1 [5]): dramatically increased
- Fructose uptake (293T cells [10]): not altered
- effect on control A-MLV titers [11]: no effect
